# Molecular target: WT
# Assay: flow cytometry of CHO cells displaying the WT truncated domain, stained with labelled TRAIL; panel stands above the 2 ug/mL panel, its own TRAIL concentration is not labelled
# WT, sequence (chain, as listed by the source limits assumed, form in doubt): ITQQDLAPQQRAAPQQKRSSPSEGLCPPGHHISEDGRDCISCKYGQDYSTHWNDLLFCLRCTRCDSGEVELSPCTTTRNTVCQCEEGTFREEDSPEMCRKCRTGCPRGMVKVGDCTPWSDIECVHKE
substance,measurement,value
APC-TRAIL (from UniProt P50591 114-281) (ligand),"APC-A, SSC-A subset (percent of cells in the gate)",3.84%
